In publication PMC4447404:
Values joined by “and” are separate entries in the source; they are usually repeats but may differ in a detail not shown here. Identical values can stand only once.

System: DnaA-his (Bacillus subtilis)
Assay: IDAP-Seq (affinity pull-down)
Settings: 40 mM HEPES-KOH pH 7.6, 150 mM K-glutamate, 2.5 mM ATP or ADP, 10 mM Mg acetate, 0.2 mM DTT, 50 ug/ml BSA, 0.1 mM EDTA, 20% glycerol, 4% sucrose, 0.2 mg/ml …

| Substance | Kd | binding signal (fold ATP/ADP DNA recovered) (550 nM DnaA) |
| --- | --- | --- |
| yopH internal (peak 19) | 4900 nM and 5000 nM | – |
| yydA upstream / yyzF downstream (peak 8) | 160 nM and 330 nM | – |
| ynaI downstream / xynP upstream (peak 11) | 2000 nM and 3000 nM | – |
| ywcI/vpr upstream (peak 3) | 130 nM and 170 nM | – |
| yorF internal (peak 13) | 2000 nM and 3000 nM | – |
| yydH internal (peak 17) | 2400 nM and 4600 nM | – |
| yhdF internal | – | 24 |
| ggaA internal (peak 18) | 2700 nM and 4800 nM | – |
| yhcN internal (peak 15) | 19400 nM and 6900 nM | – |
| yhcA internal (peak 12) | 3600 nM and 2800 nM | – |
| oriC upstream of dnaA (peak 1) | 210 nM and 330 nM | – |
| codV internal (peak 9) | 1100 nM and 1900 nM | – |
| yvmC/yvmB upstream (peak 14) | 2200 nM and 4400 nM | – |
| trmE upstream / jag downstream (peak 5) | 330 nM and 430 nM | – |
| oriC dnaA-dnaN (peak 2) | 160 nM and 300 nM | – |
| rlmCD internal (peak 20) | 7500 nM and 6700 nM | – |
| rplB internal (peak 10) | 1400 nM and 1200 nM | – |
| yqeG/sda upstream (peak 7) | 150 nM and 510 nM | – |
| yutJ internal (peak 16) | 2500 nM and 2900 nM | – |
| gcp/ydiF downstream (peak 4) | 150 nM and 330 nM | – |
| ywlC upstream / ywlB downstream (peak 6) | 250 nM and 450 nM | – |
